7 sequences from the supplement of paper PMC5998384 can be followed below.

Data set [1] concerns HeLa Kyoto. Description: melting temperature (median over replicates), in situ; higher = more thermally stable.
In data set [2] the test system is HeLa Kyoto. Kind of data set: solubility change mitosis vs G1/S (difference of NP-40 vs SDS log2 ratios) (log2 ratio difference); higher = more soluble in mitosis.
Data set [3] deals with HeLa Kyoto. Description: solubility in G1/S (NP-40 vs SDS abundance) (log2 ratio); higher = more soluble. The settings on record: cell cycle stage: G1/S.
Data set [4] deals with HeLa Kyoto. Kind of data set: thermal stability score vs G1/S (z-score of summed log2 fold changes over temperatures); higher = more thermally stable than in G1/S.
[5] abbreviates: cell cycle stage: early G1 (4.5 h after nocodazole release).
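For melting temperature (median over replicates), in situ in this document: HeLa Kyoto cells synchronized by double thymidine or nocodazole block, proteins quantified by TMT10plex mass spectrometry, three independent biological replicates.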
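For solubility change mitosis vs G1/S (difference of NP-40 vs SDS log2 ratios) in this document: synchronized HeLa Kyoto cells (double thymidine block for G1/S, nocodazole release for mitosis), protein amounts in NP-40 versus SDS lysates quantified by mass spectrometry, three biological replicates.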
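For solubility in G1/S (NP-40 vs SDS abundance) in this document: HeLa Kyoto cells arrested at G1/S by double thymidine block, proteins quantified by TMT10plex mass spectrometry in mild NP-40 versus SDS extracts, three biological replicates.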
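For thermal stability score vs G1/S (z-score of summed log2 fold changes over temperatures) in this document: synchronized HeLa Kyoto cells, proteins quantified by TMT10plex mass spectrometry, three biological replicates, mitosis taken 0.5 h after nocodazole release, G1/S directly after double thymidine block.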

As for “MAMQKIFAREILDSRGNPTVEVDLHTAKGRFRAAVPSGASTGIYEALELRDGDKGRYLGKGVLKAVENINNTLGPALLQKKLSVVDQEKVDKFMIELDGTENKSKFGANAILGVSLAVCKAGAAEKGVPLYRHIADLAGNPDLILPVPAFNVINGGSHAGNKLAMQEFMILPVGASSFKEAMRIGAEVYHHLKGVIKAKYGKDATNVGDEGGFAPNILENNEALELLKTAIQAAGYPDKVVIGMDVAASEFYRNGKYDLDFKSPDDPARHITGEKLGELYKSFIKNYPVVSIEDPFDQDDWATWTSFLSGVNIQIVGDDLTVTNPKRIAQAVEKKACNCLLLKVNQIGSVTESIQACKLAQSNGWGVMVSHRSGETEDTFIADLVVGLCTGQIKTGAPCRSERLAKYNQLMRIEEALGDKAIFAGRKFRNPKAK [ENO3]”, the results for the melting temperature in the data set on HeLa Kyoto [1] (cell cycle stage: G1/S) and in the data set with HeLa Kyoto [1] (cell cycle stage: mitosis) were 55.2 °C and 56.6 °C, respectively. The “solubility change mitosis (log2)” value in the data set on HeLa Kyoto [2] was 0.0137. Besides, in the data set with HeLa Kyoto [3], the “solubility in G1/S (log2)” value stood at 0.117. For the same sequence, the thermal stability score in the data set with HeLa Kyoto [4] (setting [5]) is -0.939; with HeLa Kyoto [4] (cell cycle stage: mitosis), -1.58.

With “MVPALRYLVGACGRARGLFAGGSPGACGFASGRPRPLCGGSRSASTSSFDIVIVGGGIVGLASARALILRHPSLSIGVLEKEKDLAVHQTGHNSGVIHSGIYYKPESLKAKLCVQGAALLYEYCQQKGISYKQCGKLIVAVEQEEIPRLQALYEKGLQNGVPGLRLIQQEDIKKKEPYCRGLMAIDCPHTGIVDYRQVALSFAQDFQEAGGSVLTNFEVKGIEMAKESPSRSIDGMQYPIVIKNTKGEEIRCQYVVTCAGLYSDRISELSGCTPDPRIVPFRGDYLLLKPEKCYLVKGNIYPVPDSRFPFLGVHFTPRMDGSIWLGPNAVLAFKREGYRPFDFSATDVMDIIINSGLIKLASQNFSYGVTEMYKACFLGATVKYLQKFIPEITISDILRGPAGVRAQALDRDGNLVEDFVFDAGVGDIGNRILHVRNAPSPAATSSIAISGMIADEVQQRFEL [L2HGDH]”, the melting temperature in the data set with HeLa Kyoto [1] (cell cycle stage: G1/S) was found to be 53.9 °C; in the data set with HeLa Kyoto [1] (cell cycle stage: mitosis), 53.6 °C. Also, the “solubility change mitosis (log2)” value with HeLa Kyoto [2] was -0.123. For the same sequence, in the data set with HeLa Kyoto [3], the “solubility in G1/S (log2)” value amounted to 0.0471. Moreover, the thermal stability score came out at 0.996 in the data set on HeLa Kyoto [4] (setting [5]) and 0.751 in the data set with HeLa Kyoto [4] (cell cycle stage: mitosis).

For the sequence “MWDQGGQPWQQWPLNQQQWMQSFQHQQDPSQIDWAALAQAWIAQREASGQQSMVEQPPGMMPNGQDMSTMESGPNNHGNFQGDSNFNRMWQPEWGMHQQPPHPPPDQPWMPPTPGPMDIVPPSEDSNSQDSGEFAPDNRHIFNQNNHNFGGPPDNFAVGPVNQFDYQHGAAFGPPQGGFHPPYWQPGPPGPPAPPQNRRERPSSFRDRQRSPIALPVKQEPPQIDAVKRRTLPAWIREGLEKMEREKQKKLEKERMEQQRSQLSKKEKKATEDAEGGDGPRLPQRSKFDSDEEEEDTENVEAASSGKVTRSPSPVPQEEHSDPEMTEEEKEYQMMLLTKMLLTEILLDVTDEEIYYVAKDAHRKATKAPAKQLAQSSALASLTGLGGLGGYGSGDSEDERSDRGSESSDTDDEELRHRIRQKQEAFWRKEKEQQLLHDKQMEEEKQQTERVTKEMNEFIHKEQNSLSLLEAREADGDVVNEKKRTPNETTSVLEPKKEHKEKEKQGRSRSGSSSSGSSSSNSRTSSTSSTVSSSSYSSSSGSSRTSSRSSSPKRKKRHSRSRSPTIKARRSRSRSYSRRIKIESNRARVKIRDRRRSNRNSIERERRRNRSPSRERRRSRSRSRDRRTNRASRSRSRDRRKIDDQRGNLSGNSHKHKGEAKEQERKKERSRSIDKDRKKKDKEREREQDKRKEKQKREEKDFKFSSQDDRLKRKRESERTFSRSGSISVKIIRHDSRQDSKKSTTKDSKKHSGSDSSGRSSSESPGSSKEKKAKKPKHSRSRSVEKSQRSGKKASRKHKSKSRSR [PNISR]”, the melting temperature amounted to 59.9 °C in the data set on HeLa Kyoto [1] (cell cycle stage: G1/S) and 54.5 °C in the data set on HeLa Kyoto [1] (cell cycle stage: mitosis). Also, the “solubility change mitosis (log2)” value in the data set on HeLa Kyoto [2] was 0.456. The “solubility in G1/S (log2)” value in the data set on HeLa Kyoto [3] was -0.83. Also, the thermal stability score was -6.44 in the data set with HeLa Kyoto [4] (setting [5]) and -8.27 in the data set on HeLa Kyoto [4] (cell cycle stage: mitosis).

As to “MGLSPSAPAVAVQASNASASPPSGCPMHEGKMKGCPVNTEPSGPTCEKKTYSVPAHQERAYEYVECPIRGTAAENKENLDPSNLMPPPNQTPAPDQPFALSTVREESSIPRADSEKKWVYPSEQMFWNAMLKKGWKWKDEDISQKDMYNIIRIHNQNNEQAWKEILKWEALHAAECPCGPSLIRFGGKAKEYSPRARIRSWMGYELPFDRHDWIINRCGTEVRYVIDYYDGGEVNKDYQFTILDVRPALDSLSAVWDRMKVAWWRWTS [HCCS]”, the figures for the melting temperature in the data set on HeLa Kyoto [1] (cell cycle stage: G1/S) and in the data set on HeLa Kyoto [1] (cell cycle stage: mitosis) were 55.3 °C and 55.1 °C, respectively. The “solubility change mitosis (log2)” value in the data set on HeLa Kyoto [2] is -0.0745. Besides, the “solubility in G1/S (log2)” value in the data set on HeLa Kyoto [3] was determined as 0.328. Further, the thermal stability score in the data set on HeLa Kyoto [4] (setting [5]) is -0.00681; in the data set on HeLa Kyoto [4] (cell cycle stage: mitosis) it was -0.977.

Consider “MSDKDDIETPLLTEAAPILEDGNCEPAKNSESVDQGAKPESKSEPVVSTRKRPETKPSSDLETSKVLPIQDNVSKDVPQTRWGYWGSWGKSILSSASATVATVGQGISNVIEKAETSLGIPGPSEISTEVKYVAGETNAKENENSSPVAGAFGVFSTISTAVQSTGKSVISGGLDALEFIGKKTMDVIAEGDPGFKRTKGLMNRNATLSQVLREAKEKEEIRTSNEVTVETDKKTHYGLLFDEFQGLSHLEALEMLSQESEIKVKSILNSLSGEELETLKVELEQLKETFSLAEFCEEEEEEKKGDEDFTKDITELFSQLHVSSKPEKLARARNTAHEWIRKSLTKPLAENEEGEKQSEAENTEQVNKNSIEDIHAFAIRSLAELTACSIELFHKTAALVLHGRKQEVTAIERSQTLSQMTIVLCKELSSLSKEFTTCLTTAGVKEMADVLNPLITAVFLEASNSASYIQDAFQLLLPVLEISLIENKIESHRHELQGQKPLLEH [FAM114A2]”, for which the melting temperature with HeLa Kyoto [1] (cell cycle stage: G1/S) was found to be 52.3 °C; in the data set with HeLa Kyoto [1] (cell cycle stage: mitosis) it was 52 °C. Further, the “solubility change mitosis (log2)” value in the data set with HeLa Kyoto [2] was -0.0154. In the data set on HeLa Kyoto [3], the “solubility in G1/S (log2)” value turned out to be 0.326. The thermal stability score in the data set on HeLa Kyoto [4] (setting [5]) was found to be 0.464; with HeLa Kyoto [4] (cell cycle stage: mitosis), 0.0988.

On to “MAGSRLPRQLFLQGVAAVFMFAFASLYTQIPGLYGPEGILPARRTLRPQGKGRWQQLWETPTLLWEAPRLGLDTAQGLELLSLLGALVALGALLLSPLRHPVIYLLLWAAYLSACQVGQVFLYFQWDSLLLETGFLAVLVAPLRPASHRKEAPQGRQAGALPHEDLPFWLVRWLLFRLMFASGVVKLTSRCPAWWGLTALTYHYETQCLPTPAAWFAHHLPVWLHKLSVVATFLIEIAVPPLFFAPIRRLRLAAFYSQVLLQVLIIITGNYNFFNLMTLVLTTALLDDQHLAAEPGHGSRKKTATSWPKALLATLSLLLELAVYGLLAYGTVHYFGLEVDWQQRTIHSRTTFTFHQFSQWLKTLTLPTVWLGVASLVWELLSALWRWTQVRGWLRKLSAVVQLSLVGTATVALFLISLVPYSYVEPGTHGRLWTGAHRLFGAVEHLQLANSYGLFRRMTGLGGRPEVVLEGSYDGHHWTEIEFMYKPGNLSRPPPVVVPHQPRLDWQMWFAALGPHTHSPWFTSLVLRLLQGKEPVIRLVQSQVARYPFHKQPPTYVRAQRYKYWFSQPGEQGQWWRRQWVEEFFPSVSLGDPTLETLLRQFGLQEKSPPRTRSANSTLAQALHWTRSQLSPLEAPALLWGLLMAVGAVRFVQALLAPCSLRSSPLAPVSGEKRRPASQKDSGAASEQATAAPNPCSSSSRTTRRKK [LMF2]”, for which the melting temperature in the data set on HeLa Kyoto [1] (cell cycle stage: G1/S) was 51.9 °C; in the data set with HeLa Kyoto [1] (cell cycle stage: mitosis), 52.8 °C. Moreover, the “solubility change mitosis (log2)” value in the data set with HeLa Kyoto [2] is -0.0691. Also, in the data set with HeLa Kyoto [3], the “solubility in G1/S (log2)” value was -0.171. The thermal stability score with HeLa Kyoto [4] (setting [5]) is -0.462; in the data set on HeLa Kyoto [4] (cell cycle stage: mitosis), -1.11.

With “MSNMEKHLFNLKFAAKELSRSAKKCDKEEKAEKAKIKKAIQKGNMEVARIHAENAIRQKNQAVNFLRMSARVDAVAARVQTAVTMGKVTKSMAGVVKSMDATLKTMNLEKISALMDKFEHQFETLDVQTQQMEDTMSSTTTLTTPQNQVDMLLQEMADEAGLDLNMELPQGQTGSVGTSVASAEQDELSQRLARLRDQV [CHMP1B]”, the melting temperature in the data set on HeLa Kyoto [1] (cell cycle stage: G1/S) worked out at 51.8 °C; in the data set with HeLa Kyoto [1] (cell cycle stage: mitosis), 52.2 °C. The “solubility change mitosis (log2)” value in the data set with HeLa Kyoto [2] came out at 0.158. Further, the “solubility in G1/S (log2)” value in the data set on HeLa Kyoto [3] is 0.304. Also, the values for the thermal stability score in the data set with HeLa Kyoto [4] (setting [5]) and with HeLa Kyoto [4] (cell cycle stage: mitosis) were 0.0467 and -0.997, respectively.
